Reference: patent US20250339569A1 (3B PHARMACEUTICALS, published 2025)
Starred links: 1 amine or outer side, 2 acyl side, 3 side chain; linkers in the order of their positions; H or OH if unused. Positions of bridges follow the written chain, without caps; N, C: chain ends. Non-standard residues stand in square brackets, D forms with d. Primed or numbered codes have the meaning given here. *: point of attachment. APAc″ = 2-(4-(amino)piperidin-1-yl)acetic acid, NC1CCN(CC(=O)*)CC1; DOTA = O=C(O)CN1CCN(CC(=O)O)CCN(CC(=O)*)CCN(CC(=O)O)CC1; mXylylene = c1cc(C[*:1])cc(C[*:2])c1; NHMe2Nph = not defined here; NMeS = CN[C@@H](CO)C(=O)O; 2Quyl = not defined here; AGLU′ = not defined here; APAc = not defined here; Bn = c1ccc(C*)cc1

Target: human carbonic anhydrase 9 (CAIX) (human, UniProt Q16790 38-459)
Test: FACS competition on HT-29 cells, competitor tracer 3BP-2776; category A = pIC50 >8.0
Protocol: CAIX-expressing human HT-29 colorectal cancer cells (DSMZ, RRID: CVCL_0320) were cultured in McCoys's 5A modified medium (Biochrom, #F1015) including 10% fetal calf serum (FCS), 2 mM L-glutamine, 100 U/ml penicillin and 100 μg/mL streptomycin. Cells were detached with Accutase (Biolegend, #423201) and washed in FACS buffer (PBS including 1% FCS). Cells were diluted in FACS buffer to a final concentration of 500.000 cells per ml. 200 μL of the cell suspension were transferred to a u-shaped non-binding 96-well plate (Greiner) and cells were washed in ice-cold FACS buffer.
When biotinylated compounds were used an additional incubation step with 1 μg/mL APC-Streptavidin (Miltenyi; #130-106-791) in 50 μL FACS buffer for 30 minutes on ice was performed.
Cells were washed twice with ice-cold FACS buffer and analyzed in an Attune NxT flow cytometer (Thermo Fisher). Median fluorescence intensities (MFI) of the APC/Cy5-channel were calculated by Attune NxT software.

Binder | pIC50 [pic50]
{DOTA-APAc}-VYCQ[dP]DWLTWSC-NH2 (linker 3-12 via mXylylene; reading uncertain) [3BP-4104] | > 8
{DOTA-APAc}-VYCE[dP]Y(Bn)WLTWSC-NH2 (linker 3-12 via mXylylene; not fully specified; reading uncertain) [3BP-4127] | > 8
{DOTA-APAc″}-VYCE[dP]E(NHMe2Nph)WLTWSC-NH2 (linker 3-12 via mXylylene; reading uncertain) [3BP-4215] | > 8
{DOTA-APAc}-VSCE[dP]DWLTWSC-NH2 (linker 3-12 via mXylylene; reading uncertain) [3BP-4105] | > 8
{DOTA-APAc}-VYCE[dP]DC(Bn)LTWSC-NH2 (linker 3-12 via mXylylene; not fully specified; reading uncertain) [3BP-4130] | > 8
{DOTA-APAc}-VYCE[dP]DYLTWSC-NH2 (linker 3-12 via mXylylene; not fully specified; reading uncertain) [3BP-4136] | > 8
{DOTA-APAc}-VYCE[dP]DWLTWSC-NH2 (linker 3-12 via mXylylene; reading uncertain; also: ['indium complexed by DOTA']) [3BP-3905] | > 8

Next, values leading:

pIC50 [pic50] | Binder
> 8 | {DOTA}-YCE[dP]DWLTWSC-NH2 (linker 2-11 via mXylylene; also: ['indium complexed by DOTA']) [3BP-3906]
> 8 | {DOTA-APAc}-VYCE[dP]C(2Quyl)WLTWSC-NH2 (linker 3-12 via mXylylene; not fully specified; reading uncertain) [3BP-4129]
> 8 | {DOTA-APAc}-VYCE[dE](AGLU′)DWLTWSC-NH2 (linker 3-12 via mXylylene; reading uncertain) [3BP-4119]
> 8 | {DOTA-APAc}-VE(AGLU′)CE[dP]DWLTWSC-NH2 (linker 3-12 via mXylylene; reading uncertain) [3BP-4112]
> 8 | {DOTA-APAc}-VYCE[dP]DWLTWEC-NH2 (linker 3-12 via mXylylene; not fully specified (residue 11); reading uncertain) [3BP-4122]
> 8 | {DOTA-APAc}-VYCE[dP]DWLE(AGLU′)WSC-NH2 (linker 3-12 via mXylylene; reading uncertain) [3BP-4121]
> 8 | {DOTA-APAc}-VYC[NMeS][dP]DWLTWSC-NH2 (linker 3-12 via mXylylene; reading uncertain) [3BP-4108]
> 8 | {DOTA-APAc}-VYCE[dP]C(Bn)WLTWSC-NH2 (linker 3-12 via mXylylene; not fully specified; reading uncertain) [3BP-4128]
